Results reported in publication PMC4150532.

T1: GST-Elp1 CTD (Saccharomyces cerevisiae) (UniProt Q06706)
T1 sequence: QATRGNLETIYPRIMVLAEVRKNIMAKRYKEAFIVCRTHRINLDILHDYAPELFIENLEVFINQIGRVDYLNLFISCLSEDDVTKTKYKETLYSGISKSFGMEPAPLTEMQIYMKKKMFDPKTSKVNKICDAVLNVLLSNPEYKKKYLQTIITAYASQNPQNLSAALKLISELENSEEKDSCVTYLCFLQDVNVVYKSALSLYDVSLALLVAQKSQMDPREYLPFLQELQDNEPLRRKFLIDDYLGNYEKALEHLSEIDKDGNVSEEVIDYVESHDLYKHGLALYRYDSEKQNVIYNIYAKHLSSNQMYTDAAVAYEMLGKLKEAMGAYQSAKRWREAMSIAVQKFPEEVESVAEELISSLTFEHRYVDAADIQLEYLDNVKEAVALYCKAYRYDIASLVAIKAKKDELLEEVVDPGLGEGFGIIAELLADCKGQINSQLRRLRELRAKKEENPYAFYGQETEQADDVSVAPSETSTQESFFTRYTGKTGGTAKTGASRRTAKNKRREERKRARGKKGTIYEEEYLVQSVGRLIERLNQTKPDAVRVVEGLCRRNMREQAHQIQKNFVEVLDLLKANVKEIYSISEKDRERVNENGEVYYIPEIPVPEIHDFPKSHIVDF


Assays:
[1] = target: T1, GST-Elp1 CTD (Saccharomyces cerevisiae); assay: EMSA; conditions: native tRNA modifications; 5' phosphate removed, then 5' 32P-labelled; 20 mM Tris-HCl pH 7.5, 150 mM NaCl, 2 mM MgCl2, 8% glycerol, 10 U Ribolock; 45 min at room temperature; 1.5% native agarose gel in 0.5x TBE
[2] = target: Elp1–KR9A–GFP (GFP-tagged Elp1 basic region mutant, nine basic residues to alanine) (S. cerevisiae) (UniProt Q06706); assay: co-IP; GFP–Trap beads precipitate the GFP-tagged protein from yeast lysate; HA-tagged partners found by anti-HA blot and measured by densitometry; lysis buffer 50 mM HEPES-KOH pH 7.5, 150 mM NaCl, 2 mM MgCl2, 0.1% Triton X-100; 4°C

percent less co-precipitated than with wild-type Elp1–GFP (densitometry) [2] [%] | Molecule | Kd [1] [nM]
 | total yeast tRNA (Sigma R9001) | 550
40 | Kti12-3HA (HA-tagged Elongator accessory protein Kti12) (natural protein) MPLVLFTGYPCSGKTTLAKHLVQLLQSKIDATPSLSKYSITYHSDESLGIKHSDYITSQDERKLRSEIISAVKRDLSKNKIVIVDSLNYIKGFRYQLHCEVKNLSTTFCVIQTLCPPETIFEWNKTSNPNPWEPELLNQLIQRYEEPNSSNRWDSPLFAILTPQDNITDYIDDICKVVFQTSKSAKNSGHNDPLSKGLQKPNSATVLKPASQSNFIQVLDIETSKIIKTIMNHIKSLTSIGGVSNGTRVIVSEGITDINDDGCFFVDLPIGNVVTLAQLQRLKRQFINFNKLRDIDQDRIGPLFADYLNKNLN | 
30 | Elp5-3HA (HA-tagged Elp5 subunit of Elongator) (natural protein) MASSSHNPVILLKRILSLTESSPFILCLDSIAQTSYKLIQEFVHQSKSKGNEYPIVYISFETVNKPSYCTQFIDATQMDFVHLVKQIISYLPAATATQAKKHMVIIDSLNYISTEYITRFLSEIASPHCTMVATYHKDIKDENRTVIPDWNNNYPDKLTLLQFMATTIVDIDVVLTGTLDTEEVSELLNEFRIPRGLNNDIFQLRLVNKRKSGRSLEYDFIVNSNTHEYELLSTTKQEEESSSNGLETPEMLQGLTTFNLGTSNKQKLAKDQVALPFLEAQSFGQGGAIVYEYEKDDDYDEEDPYEDPF | 
